The source of these data is patent US20050153395A1, “Unique integrin binding site in connective tissue growth factor (CTGF)” (CHILDREN'S HOSPITAL INC., priority 2003, published 2005).

“Also recorded” adds a separate entry of the source.

The target in one assay is integrin αvβ3 (Homo sapiens, UniProt P05106+P06756). Kind of assay: Solid phase ELISA of integrin αvβ3 binding. To be noted: coated at different concentrations. The method, then:
Solid phase binding studies were also performed to investigate the binding of CTGF isoforms and αvβ3. Each CTGF isoform or vitronectin was individually coated onto microtiter wells at different concentrations, and the subsequent binding of αvβ3 was detected by ELISA using an anti-human αvβ3 monoclonal antibody. […] Saturation of binding occurred at 2 μg/ml for each CTGF isoform and 4 μg/ml for vitronectin.
In order to identify the αvβ3 binding site in CTGF4, eighteen synthetic peptides spanning the entire C-terminal region of CTGF4 (residues 246-349 of SEQ ID NO: 1) were synthesized and used as potential blocking agents in the solid phase binding studies as described in Example 3. […] Integrin αvβ3 was detected by successive incubation with anti-human αvβ3 monoclonal antibody diluted in blocking solution (1:1000), and followed by HRP-conjugated goat anti-mouse IgG (1:4000). The color reaction was developed using the horseradish peroxidase ELISA reagents (Chemicon), and the absorbance at 450 nm was measured using Bio Assay Reader (HTS700).
The ability of mutant CTGF4 to bind to integrin αvβ3 was assessed by solid phase ELISA which measured the ability of purified integrin αvβ3 to bind to the CTGF4 mutants.
On the technique in general: An ELISA detects its analyte on a solid surface through an enzyme-linked reagent.

Assay [1] relates to vascular endothelial cells, intestinal epithelial, and hepatic stellate cells. Kind of assay: Adhesion of cell types to 10 kDa CTGF. Format: cell-based. To be noted: vascular endothelial, intestinal epithelial, hepatic stellate cells. How it is done: (§1) To confirm the functionality of residues 247-349 of SEQ ID NO: 1 (containing module 4 alone; denoted as CTGF4), this region of CTGF was produced as a maltose binding protein (MBP) fusion protein in E. coli as described in Ball et al., J Endocrinol; 176: R1-R7, 2003. […] HPLC-purified 10 kDa CTGF promoted 3T3 cell adhesion in a dose-dependent manner, with maximal binding at 8 ng/well. […] Also, the binding of all cell types to 10 kDa CTGF was reduced by EDTA treatment, though this effect was relatively modest in 3T3 cells. Thus, E coli-derived CTGF isoforms comprising essentially module 4 are intrinsically functional in the absence of the other constituent modules of CTGF.

In assay [2] the test system is pancreatic stellate cells (PSC). In words: PSC adhesion assay on coated wells. Format: cell-based, rat. To be noted: coated at 2 μg/ml. The text has this:
Rat PSCs were isolated by a modification of the method described by Phillips et al., Gut; 52:677-82, 2003. Briefly, pancreatic tissue was digested in situ with 0.03% collagenase P (Roche, Indianapolis, Ind.) in HBSS by perfusion through the thoracic aorta. This protocol was approved by the Institutional Animal Care and Use Committee of Children's Research Institute, Columbus, Ohio. The tissue was pooled, minced with scissors, and then digested with 0.05% collagenase P, 0.02% protease XIV (Sigma, St. Louis), and DNase I (Roche, Indianapolis, Ind.) in HBSS. The resulting cell suspension was centrifuged in a 12% Optiprep gradient at 1400 g for 14 minutes. Stellate cells separated into a hazy band just above the interface of a the gradient and the aqueous buffer. This band was harvested, and the cells washed and resuspended in DMEM supplemented with 25 mM Hepes buffer, 10% FBS, and 100 U/ml penicillin in, 100 μg/ml streptomycin. The, cells were maintained at 37° C. in a humidified atmosphere of 5% CO2/95% air.
The ability of activated PSC to adhere to non-tissue culture plastic microtiter wells coated with recombinant CTGF1-4, CTGF3-4 or CTGF4 was investigated. The solid phase binding assay was carried out as described in Example 2. […] To assess the possibility that CTGF-mediated PSC adhesion involved cell surface integrins, the effect of divalent cations on cell adhesion was examined, as described in Example 2. […]
Because CTGF is a heparin-binding protein, this property was further investigated.
To identify the peptides that bind to PSCs, cell adhesion assays were carried out as described in Example 3.
To further investigate the peptide binding, P2 or P5 (10 μM) or vehicle buffer alone (no add) were added to PSC cell suspensions for 30 minutes at room temperature.

The next assay has as its system PSCs. Kind of assay: PSC chemotaxis (migration) assay in culture insert. To be noted: substance in lower chamber. Format: cell-based, rat. How it is done: To examine whether CTGF plays a role in PSC migration, a chemotaxis assay was carried out in which the migratory behavior of PSCs in the upper chamber of a culture insert was assessed following addition of CTGF to the lower chamber. […] PSC migration was also promoted by FN, PDGF or TGF-β1.

The subject of the next assay is neonatal mice. In words: Fibrogenic response after subcutaneous administration to neonatal mice. Format: in vivo. The settings on record: administered subcutaneously to neonatal mice. The method, then: CTGF is also known to induce transdifferentiaion of corneal epithelial cells into α […] muscle actin (αSMA)-expressing myofibroblasts. For example, cells are cultured for 24 hours in the presence and absence of CTGF peptide or CTGF modulator. Subsequently, the treated cells are stained for αSMA. CTGF activity also may be analyzed by measuring for a classic fibrogenic response as described in Leask et al., Mol. Pathol; 54: 180-183, 2001. For example, CTGF peptide or CTGF modulator are administered into the subcutaneous region of the neck of 3 day old mice for 7 consecutive days. Fourteen days after the last injection, the mice are sacrificed and the injected areas are stained for αSMA.
(§2) Adhesion is a well-accepted and reproducible measure of CTGF activity. […] Using 4 liters of CHO conditioned medium approximately 0.5 mg, 1 mg, and 0.1 mg, respectively, of 38 kDa, 16-20 kDa, and 10 kDa CTGF (CTGF1-4, CTGF3-4 and CTGF4, respectively) were produced.

The next assay deals with integrin α5β1 (Homo sapiens, UniProt P05556+P08648). Kind of assay: Solid phase ELISA of integrin α5β1 binding. The settings on record: coated at 2 μg/ml; 1 μg/ml integrin. How it is done: In a second approach, a solid phase binding assay was used in which CTGF1-4 or FN were individually coated onto microtiter wells that were subsequently incubated with purified integrin α5β1. The presence of immobilized integrin α5β1 was detected by ELISA using an anti-integrin α5β1 antibody similar to the methods described in Example 3 above. In addition, CTGF1-4 bound to integrin α5β1 in a dose-dependent manner, with maximal binding at 2 μg/ml CTGF. This level of CTGF1-4 (2 μg/ml) binding was the same as that elicited by 2 μg/ml FN, a well known ligand of integrin α5β1. In a similar experiment, 2 μg/ml of CTGF1-4;CTGF3-4 or CTGF4 were individually precoated onto microtiter wells. Using the solid-phase assay, integrin α5β1 bound to CTGF1-4, CTGF3-4 or CTGF4 See FIG. 5 (Panel B).
To directly analyze whether α5β1 integrin binds to CTGF4, microtiter wells coated with CTGF4 (2 μg/ml) or FN (4 μg/ml) were used in an ELISA assay to detect integrin binding, as described in Example 3. For these assays, 1 μg/ml integrin α5β1, alone or in the presence of 35 μM of P2peptide (CTGF[257-272]) and 35 μM of P5 peptide (CTGF [285-291]), were added to the precoated plates. […] The binding between CTGF4 and integrin α5 β1 was blocked by peptide P5 (CTGF [285-291]) or peptide P2 (CTGF[257-272]). […]

In a further assay the test system is 3T3 cells. Kind of assay: 3T3 cell adhesion to CTGF-coated non-tissue culture plastic. Format: cell-based. The settings on record: HPLC-purified E. coli-derived protein. The method, then: as §2, §1

Chain of integrin α5β1 (P08648 42-894 limits assumed): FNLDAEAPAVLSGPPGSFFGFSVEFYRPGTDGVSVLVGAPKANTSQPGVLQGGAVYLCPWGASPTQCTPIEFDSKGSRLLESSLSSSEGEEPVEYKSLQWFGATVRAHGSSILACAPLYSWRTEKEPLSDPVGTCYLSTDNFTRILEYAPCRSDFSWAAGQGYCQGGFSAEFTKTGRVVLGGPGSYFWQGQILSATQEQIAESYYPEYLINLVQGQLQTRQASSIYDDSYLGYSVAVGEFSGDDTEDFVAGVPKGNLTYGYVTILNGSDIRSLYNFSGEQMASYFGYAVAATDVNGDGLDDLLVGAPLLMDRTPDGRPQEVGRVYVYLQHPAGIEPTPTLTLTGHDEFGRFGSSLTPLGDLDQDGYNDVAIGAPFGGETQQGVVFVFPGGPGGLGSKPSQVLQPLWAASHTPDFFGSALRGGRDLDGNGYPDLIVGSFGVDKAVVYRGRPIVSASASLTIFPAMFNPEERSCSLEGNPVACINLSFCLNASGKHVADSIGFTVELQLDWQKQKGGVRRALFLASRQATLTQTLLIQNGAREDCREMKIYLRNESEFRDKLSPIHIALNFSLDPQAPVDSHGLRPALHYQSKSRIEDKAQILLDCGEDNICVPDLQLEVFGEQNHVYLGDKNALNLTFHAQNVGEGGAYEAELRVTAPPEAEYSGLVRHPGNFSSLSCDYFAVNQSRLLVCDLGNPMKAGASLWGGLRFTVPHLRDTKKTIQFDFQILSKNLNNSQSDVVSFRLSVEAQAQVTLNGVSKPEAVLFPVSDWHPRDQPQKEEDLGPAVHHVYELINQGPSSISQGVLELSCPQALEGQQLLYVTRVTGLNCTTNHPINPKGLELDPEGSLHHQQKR
Chain of integrin α5β1 (P08648 895-1049 partner limits assumed): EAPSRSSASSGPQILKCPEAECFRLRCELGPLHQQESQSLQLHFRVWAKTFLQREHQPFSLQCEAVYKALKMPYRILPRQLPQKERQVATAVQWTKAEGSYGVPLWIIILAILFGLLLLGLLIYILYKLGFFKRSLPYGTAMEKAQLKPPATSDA
Chain of integrin α5β1 (P05556 21-798): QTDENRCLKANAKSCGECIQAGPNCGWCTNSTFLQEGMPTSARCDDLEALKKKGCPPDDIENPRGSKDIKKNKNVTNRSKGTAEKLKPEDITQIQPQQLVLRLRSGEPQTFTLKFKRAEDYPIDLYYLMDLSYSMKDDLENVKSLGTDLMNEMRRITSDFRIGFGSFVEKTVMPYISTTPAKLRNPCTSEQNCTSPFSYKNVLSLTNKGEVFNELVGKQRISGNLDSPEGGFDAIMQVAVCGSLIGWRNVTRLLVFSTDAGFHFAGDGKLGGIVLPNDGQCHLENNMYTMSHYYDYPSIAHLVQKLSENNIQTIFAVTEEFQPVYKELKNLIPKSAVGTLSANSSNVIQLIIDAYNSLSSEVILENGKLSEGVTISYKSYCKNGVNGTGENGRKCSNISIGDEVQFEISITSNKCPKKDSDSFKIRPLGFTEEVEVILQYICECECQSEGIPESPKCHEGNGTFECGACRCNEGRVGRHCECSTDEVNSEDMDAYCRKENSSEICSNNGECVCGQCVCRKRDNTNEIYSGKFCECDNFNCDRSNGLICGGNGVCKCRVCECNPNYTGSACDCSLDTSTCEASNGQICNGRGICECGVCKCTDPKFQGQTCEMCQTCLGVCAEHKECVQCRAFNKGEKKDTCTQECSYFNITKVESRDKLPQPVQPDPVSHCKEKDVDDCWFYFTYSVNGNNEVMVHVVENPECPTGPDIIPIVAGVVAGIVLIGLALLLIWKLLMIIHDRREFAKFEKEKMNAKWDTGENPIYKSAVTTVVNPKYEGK
Chain of integrin αvβ3 (P06756 31-889 limits assumed): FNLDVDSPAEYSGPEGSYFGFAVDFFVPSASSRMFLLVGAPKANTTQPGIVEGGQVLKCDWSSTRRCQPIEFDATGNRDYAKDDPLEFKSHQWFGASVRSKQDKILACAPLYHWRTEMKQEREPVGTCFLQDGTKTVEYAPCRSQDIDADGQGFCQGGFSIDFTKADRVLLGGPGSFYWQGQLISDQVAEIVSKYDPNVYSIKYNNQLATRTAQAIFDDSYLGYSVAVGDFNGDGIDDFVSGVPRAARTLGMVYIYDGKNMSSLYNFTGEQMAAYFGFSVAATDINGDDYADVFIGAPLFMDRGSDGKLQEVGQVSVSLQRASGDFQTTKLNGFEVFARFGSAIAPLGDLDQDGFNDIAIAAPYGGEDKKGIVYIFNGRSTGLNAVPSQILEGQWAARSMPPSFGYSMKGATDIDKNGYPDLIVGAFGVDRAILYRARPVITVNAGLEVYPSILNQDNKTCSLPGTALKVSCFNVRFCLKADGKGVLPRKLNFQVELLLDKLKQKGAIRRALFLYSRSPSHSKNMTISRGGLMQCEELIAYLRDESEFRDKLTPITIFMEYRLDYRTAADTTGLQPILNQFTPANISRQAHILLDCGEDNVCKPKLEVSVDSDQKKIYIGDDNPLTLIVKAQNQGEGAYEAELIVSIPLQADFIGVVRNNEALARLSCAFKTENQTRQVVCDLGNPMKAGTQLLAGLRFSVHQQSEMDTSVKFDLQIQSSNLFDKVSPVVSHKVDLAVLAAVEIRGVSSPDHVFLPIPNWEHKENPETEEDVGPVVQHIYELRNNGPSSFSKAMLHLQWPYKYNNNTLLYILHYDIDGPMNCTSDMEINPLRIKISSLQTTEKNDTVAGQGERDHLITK
Chain of integrin αvβ3 (P06756 891-1048 partner limits assumed): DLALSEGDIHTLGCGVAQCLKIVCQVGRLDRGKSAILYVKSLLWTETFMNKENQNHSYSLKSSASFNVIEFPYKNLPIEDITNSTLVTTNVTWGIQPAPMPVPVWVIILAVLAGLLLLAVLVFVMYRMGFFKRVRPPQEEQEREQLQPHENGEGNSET
Chain of integrin αvβ3 (P05106 27-788): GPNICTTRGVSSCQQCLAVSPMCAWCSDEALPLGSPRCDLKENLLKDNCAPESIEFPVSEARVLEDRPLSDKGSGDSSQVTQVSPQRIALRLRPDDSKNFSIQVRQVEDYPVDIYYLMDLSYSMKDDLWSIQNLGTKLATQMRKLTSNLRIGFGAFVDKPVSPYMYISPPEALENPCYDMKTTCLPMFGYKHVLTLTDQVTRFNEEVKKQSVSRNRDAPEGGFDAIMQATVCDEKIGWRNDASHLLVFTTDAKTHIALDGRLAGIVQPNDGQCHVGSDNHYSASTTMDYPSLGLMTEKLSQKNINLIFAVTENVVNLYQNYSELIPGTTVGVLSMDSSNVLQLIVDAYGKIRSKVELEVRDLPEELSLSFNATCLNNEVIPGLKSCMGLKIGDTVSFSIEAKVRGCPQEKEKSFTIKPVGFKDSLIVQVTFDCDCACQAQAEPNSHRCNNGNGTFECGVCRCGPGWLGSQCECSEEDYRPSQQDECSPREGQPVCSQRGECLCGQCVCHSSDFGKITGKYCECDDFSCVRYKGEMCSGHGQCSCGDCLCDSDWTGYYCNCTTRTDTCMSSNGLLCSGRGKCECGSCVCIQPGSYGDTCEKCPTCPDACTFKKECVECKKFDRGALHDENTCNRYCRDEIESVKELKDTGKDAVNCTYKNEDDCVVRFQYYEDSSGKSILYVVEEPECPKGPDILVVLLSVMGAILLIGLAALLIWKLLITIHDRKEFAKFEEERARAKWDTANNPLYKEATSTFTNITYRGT

B1: CTGF4: C-terminal CTGF fragment comprising essentially module 4 alone, residues 247-349 (protein)
chain: EENIKKGKKCIRTPKISKPIKFELSGCTSMKTYRAKFCGVCTDGRCCTPHRTTTLPVEFKCPDGEVMKKNMMFIKTCACHYNCPGDNDIFESLYYRKMYGDMA
Consider B1, for which the “binding to αvβ3” value with integrin αvβ3 is reported as “strongest affinity”. Further, in assay [1], the “adhesion of several additional cell types” value is listed as “promoted the dose-dependent adhesion”. In assay [2], the “PSC adhesion supported by the coated substance” value was “significantly promoted”. In addition, the PSC migration result in the assay on PSCs is “induced PSC migration”. For the same molecule, in the assay with neonatal mice, the fibrogenic response entry is recorded as “most robust response”. Further, the “binding to integrin α5β1” value with integrin α5β1 is given as “bound; also recorded: bound strongly”. For the same molecule, the “3T3 cell adhesion, maximal binding at” value with 3T3 cells was found to be 8 ng/well.
